This data set concerns the target t-Elf-1 (truncated Elf-1) (UniProt P32519 108-304). Briefly: EMSA. For orientation: A gel shift assay detects complexes by their altered migration in electrophoresis.

Sequence of t-Elf-1 (truncated Elf-1) (P32519 108-304): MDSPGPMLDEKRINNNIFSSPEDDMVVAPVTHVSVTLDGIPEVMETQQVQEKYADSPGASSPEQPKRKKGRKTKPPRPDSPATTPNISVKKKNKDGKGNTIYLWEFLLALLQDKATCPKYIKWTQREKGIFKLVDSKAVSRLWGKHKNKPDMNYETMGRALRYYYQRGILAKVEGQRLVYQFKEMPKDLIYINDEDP

B1: MSV LTR (dsDNA)
DNA 1: TCGGAGACGGAAGCGCGC
DNA 2: GCGCGCTTCCGTCTCCGA
Consider B1, for which the binding result was “binds”.

Values taken from article PMC2191257.
